The values that follow come from patent publication US20210040177A1 (IMUNEXUS, published 2021).

Assay [1] has as its target T1, B7-1-Fc (R&D Systems Cat #140-B1) (UniProt P33681 35-242).
T1 construct: Bought reagent; also called CD80; not shown: Fc part of the bought fusion
T1 sequence (looked up): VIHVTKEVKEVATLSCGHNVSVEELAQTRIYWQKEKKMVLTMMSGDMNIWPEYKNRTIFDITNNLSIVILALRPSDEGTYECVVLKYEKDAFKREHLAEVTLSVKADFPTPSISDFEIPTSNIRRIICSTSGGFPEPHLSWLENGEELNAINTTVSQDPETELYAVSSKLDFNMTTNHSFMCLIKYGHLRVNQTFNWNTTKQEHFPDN
As to the kind of experiment: SPR (Biacore X100); molecule captured on biotin-lysozyme, B7-1-Fc as analyte. Background: Surface plasmon resonance follows binding to a sensor surface in real time, without labels.

In assay [2] the target is T1, B7-1-Fc (R&D Systems Cat #140-B1). Described as above. The source holds these as a separate data set.
Method: The theoretical maximum binding signal for the analyte (Rmax) was calculated based on the amount of captured IgG-VLD protein, accounting for the molecular weight of the analyte and ligand.
The target is the same in assay [3]. As to the kind of experiment: BLItz bio-layer interferometry; D1.3 IgG held on immobilised lysozyme, B7-1-Fc added at Point 1, buffer at Point 2.
From the text: At Point 2, B7-1-Fc was replaced with Buffer. […] At Point 2, B7-1-Fc was replaced with Buffer.

Read-outs that look alike come from different tables or passages of the source.

B1: D1.3 Fab-VLDx1 (LC) (bispecific antibody)
heavy: EVKLQESGPGLVAPSQSLSITCTVSGFSLTGYGVNWVRQPPGKGLEWLGMIWGDGNTDYNSALKSRLSISKDNSKSQVFLKMNSLHTDDTARYYCARERDYRLDYWGQGTTVTVSSASTKGPSVFPLAPSSKSTSGGTAALGCLVKDYFPEPVTVSWNSGALTSGVHTFPAVLQSSGLYSLSSVVTVPSSSLGTQTYICNVNHKPSNTKVDKRVEPKSCAAAGLGGHHHHHHGAAEQKLISEEDL
light: DIELTQSPASLSASVGETVTITCRASGNIHNYLAWYQQKQGKSPQLLVYYTTTLADGVPSRFSGSGSGTQYSLKINSLQPEDFGSYYCQHFWSTPRTFGGGTKLELKRTVAAPSVFIFPPSDEQLKSGTASVVCLLNNFYPREAKVQWKVDNALQSGNSQESVTEQDSKDSTYSLSSTLTLSKADYEKHKVYACEVTHQGLSSPVTKSFNRGECSGGGGSGGGGSGGGGSGGGGSKAMHVAQPAVVLASSRGIASFVCEYASPGKYTEVRVTVLRQADSQVTEVCAATYMTGNELTFLDDSICTGTSSGNQVNLTIQGLRAMDTGLYICKVELMYPPPYYLGIGNGTQIYVIDPEPSPDSN
notes: also called D1.3 VLDx1 (LC); D1.3 Fab-VLDx1 (CL)
B1: in assay [1], binding was characterised by a dissociation constant (Kd) of 13.6 nM, the koff (usually the first-order rate constant of dissociation) stood at 0.00296 s⁻¹ and the kon (commonly the second-order rate constant of association) worked out at 218000 M⁻¹ s⁻¹.

B2: D1.3 Fab-VLDx2 (HC+LC) (bispecific antibody)
heavy: EVKLQESGPGLVAPSQSLSITCTVSGFSLTGYGVNWVRQPPGKGLEWLGMIWGDGNTDYNSALKSRLSISKDNSKSQVFLKMNSLHTDDTARYYCARERDYRLDYWGQGTTVTVSSASTKGPSVFPLAPSSKSTSGGTAALGCLVKDYFPEPVTVSWNSGALTSGVHTFPAVLQSSGLYSLSSVVTVPSSSLGTQTYICNVNHKPSNTKVDKKVEPKSCSGGGGSGGGGSGGGGSGGGGSKAMHVAQPAVVLASSRGIASFVCEYASPGKYTEVRVTVLRQADSQVTEVCAATYMTGNELTFLDDSICTGTSSGNQVNLTIQGLRAMDTGLYICKVELMYPPPYYLGIGNGTQIYVIDPEPSPDSN
light: DIELTQSPASLSASVGETVTITCRASGNIHNYLAWYQQKQGKSPQLLVYYTTTLADGVPSRFSGSGSGTQYSLKINSLQPEDFGSYYCQHFWSTPRTFGGGTKLELKRTVAAPSVFIFPPSDEQLKSGTASVVCLLNNFYPREAKVQWKVDNALQSGNSQESVTEQDSKDSTYSLSSTLTLSKADYEKHKVYACEVTHQGLSSPVTKSFNRGECSGGGGSGGGGSGGGGSGGGGSKAMHVAQPAVVLASSRGIASFVCEYASPGKYTEVRVTVLRQADSQVTEVCAATYMTGNELTFLDDSICTGTSSGNQVNLTIQGLRAMDTGLYICKVELMYPPPYYLGIGNGTQIYVIDPEPSPDSN
notes: also called D1.3 VLDx2 (HC+LC); D1.3 Fab-VLDx2 (LC+HC)
Turning to B2, in assay [1], the equilibrium dissociation constant (Kd) (commonly the free concentration of one partner at which half of the binding sites on the other are occupied at equilibrium, for simple one-to-one binding) worked out at 9.73 nM; the koff came to 0.00433 s⁻¹; the kon was 445000 M⁻¹ s⁻¹.

B3: D1.3 IgG-VLDx2 (LC) (bispecific antibody)
heavy: not shown
light: DIELTQSPASLSASVGETVTITCRASGNIHNYLAWYQQKQGKSPQLLVYYTTTLADGVPSRFSGSGSGTQYSLKINSLQPEDFGSYYCQHFWSTPRTFGGGTKLELKRTVAAPSVFIFPPSDEQLKSGTASVVCLLNNFYPREAKVQWKVDNALQSGNSQESVTEQDSKDSTYSLSSTLTLSKADYEKHKVYACEVTHQGLSSPVTKSFNRGECSGGGGSGGGGSGGGGSGGGGSKAMHVAQPAVVLASSRGIASFVCEYASPGKYTEVRVTVLRQADSQVTEVCAATYMTGNELTFLDDSICTGTSSGNQVNLTIQGLRAMDTGLYICKVELMYPPPYYLGIGNGTQIYVIDPEPSPDSN
notes: unfused heavy chain; also called D1.3 IgG-VDLx2 (LC); bi-specific-D1.3 IgG-VLDx2 (LC)
With B3, in assay [2], the Kd was found to be 24.5 nM, the koff came to 0.004 s⁻¹ and the on-rate constant (kon) came out at 163000 M⁻¹ s⁻¹.

B4: D1.3 IgG-VLDx4 (HC+LC) (bispecific antibody)
heavy: not shown
light: DIELTQSPASLSASVGETVTITCRASGNIHNYLAWYQQKQGKSPQLLVYYTTTLADGVPSRFSGSGSGTQYSLKINSLQPEDFGSYYCQHFWSTPRTFGGGTKLELKRTVAAPSVFIFPPSDEQLKSGTASVVCLLNNFYPREAKVQWKVDNALQSGNSQESVTEQDSKDSTYSLSSTLTLSKADYEKHKVYACEVTHQGLSSPVTKSFNRGECSGGGGSGGGGSGGGGSGGGGSKAMHVAQPAVVLASSRGIASFVCEYASPGKYTEVRVTVLRQADSQVTEVCAATYMTGNELTFLDDSICTGTSSGNQVNLTIQGLRAMDTGLYICKVELMYPPPYYLGIGNGTQIYVIDPEPSPDSN
notes: also called IgG Imx4 (HC+LC); IgG Imx4 (HCLC)
In assay [2], B4 displayed a dissociation constant (Kd) of 5.47 nM, a koff of 0.0029 s⁻¹ and a kon of 530000 M⁻¹ s⁻¹.

B5: D1.3 anti-lysozyme antibody [D1.3 IgG] (antibody, V domains shown)
VH: EVKLQESGPGLVAPSQSLSITCTVSGFSLTGYGVNWVRQPPGKGLEWLGMIWGDGNTDYNSALKSRLSISKDNSKSQVFLKMNSLHTDDTARYYCARERDYRLDYWGQGTTVTVSS
VL: DIELTQSPASLSASVGETVTITCRASGNIHNYLAWYQQKQGKSPQLLVYYTTTLADGVPSRFSGSGSGTQYSLKINSLQPEDFGSYYCQHFWSTPRTFGGGTKLELKR
notes: Full length IgG1 kappa, expressed in Expi293 cells; parent of all IgG-VLD fusions; also called D1.3 IgG alone (full length); D1.3 antibody
As to B5, in assay [3], the binding result is on record as “no binding”.

B6: D1.3 IgG-VLDx2 (HC) (bispecific antibody)
heavy: not shown
light: DIELTQSPASLSASVGETVTITCRASGNIHNYLAWYQQKQGKSPQLLVYYTTTLADGVPSRFSGSGSGTQYSLKINSLQPEDFGSYYCQHFWSTPRTFGGGTKLELKRTVAAPSVFIFPPSDEQLKSGTASVVCLLNNFYPREAKVQWKVDNALQSGNSQESVTEQDSKDSTYSLSSTLTLSKADYEKHKVYACEVTHQGLSSPVTKSFNRGEC
notes: unfused kappa light chain; also called bi-specific-D1.3 IgG-VLDx2 (HC)
Turning to B6, in assay [2], the Kd stood at 5.44 nM, the koff is 0.0028 s⁻¹ and the kon is 516000 M⁻¹ s⁻¹.

B7: D1.3 Fab-VLDx1 (HC) (bispecific antibody)
heavy: EVKLQESGPGLVAPSQSLSITCTVSGFSLTGYGVNWVRQPPGKGLEWLGMIWGDGNTDYNSALKSRLSISKDNSKSQVFLKMNSLHTDDTARYYCARERDYRLDYWGQGTTVTVSSASTKGPSVFPLAPSSKSTSGGTAALGCLVKDYFPEPVTVSWNSGALTSGVHTFPAVLQSSGLYSLSSVVTVPSSSLGTQTYICNVNHKPSNTKVDKKVEPKSCSGGGGSGGGGSGGGGSGGGGSKAMHVAQPAVVLASSRGIASFVCEYASPGKYTEVRVTVLRQADSQVTEVCAATYMTGNELTFLDDSICTGTSSGNQVNLTIQGLRAMDTGLYICKVELMYPPPYYLGIGNGTQIYVIDPEPSPDSN
light: DIELTQSPASLSASVGETVTITCRASGNIHNYLAWYQQKQGKSPQLLVYYTTTLADGVPSRFSGSGSGTQYSLKINSLQPEDFGSYYCQHFWSTPRTFGGGTKLELKRTVAAPSVFIFPPSDEQLKSGTASVVCLLNNFYPREAKVQWKVDNALQSGNSQESVTEQDSKDSTYSLSSTLTLSKADYEKHKVYACEVTHQGLSSPVTKSFNRGEC
Consider B7, for which, in assay [1], binding was put at a Kd of 5.41 nM, the off-rate constant (koff) is 0.00285 s⁻¹ and the kon turned out to be 526000 M⁻¹ s⁻¹.
